Results: US20240269306A1 (MERSANA THERAPEUTICS, published 2024)

Assays:
[1] = biological target: T1, Human B7-H4 on the cell surface (MX-1, HCC1569, CAMA-1 cells); HEK-293 cells stably transfected with human … (human, UniProt Q7Z7D3 25-282); assay: flow cytometry, MX-1 cells, mean of two experiments
T1 construct: The cell line of each result is named under assay or readout; also called cell surface B7-H4
T1 sequence: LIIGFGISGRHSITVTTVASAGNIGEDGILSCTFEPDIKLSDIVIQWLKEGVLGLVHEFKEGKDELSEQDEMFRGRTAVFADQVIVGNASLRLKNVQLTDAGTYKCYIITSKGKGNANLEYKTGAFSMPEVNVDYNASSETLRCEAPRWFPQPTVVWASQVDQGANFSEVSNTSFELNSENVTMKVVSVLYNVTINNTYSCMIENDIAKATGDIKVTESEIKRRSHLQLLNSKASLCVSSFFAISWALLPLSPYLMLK

[2] = biological target: T1, Human B7-H4 on the cell surface (MX-1, …); assay: flow cytometry, MX-1 cells
[3] = biological target: T2, Recombinant human B7-H4 protein (R&D Systems #6576-B7-050) (human, UniProt Q7Z7D3 29-258); assay: ELISA, coated recombinant human B7-H4
T2 construct: Bought protein
T2 sequence: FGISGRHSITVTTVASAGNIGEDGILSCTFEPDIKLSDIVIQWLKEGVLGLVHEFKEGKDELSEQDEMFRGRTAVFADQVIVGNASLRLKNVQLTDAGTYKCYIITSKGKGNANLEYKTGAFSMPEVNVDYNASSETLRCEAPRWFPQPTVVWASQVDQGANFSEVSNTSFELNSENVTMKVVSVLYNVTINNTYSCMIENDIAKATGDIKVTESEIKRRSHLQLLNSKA

[4] = biological target: T3, Monkey B7-H4 protein (Creative Biomart; VTCN1-1519R) (monkey); assay: ELISA, coated monkey B7-H4, mean of two studies
T3 construct: Bought protein

[5] = biological target: T4, Rat B7-H4 protein (R&D Systems 10085-B7) (rat, UniProt Q501W4 29-257, limits assumed); assay: ELISA, coated rat B7-H4, mean of two studies
T4 construct: Bought protein
T4 sequence (looked up): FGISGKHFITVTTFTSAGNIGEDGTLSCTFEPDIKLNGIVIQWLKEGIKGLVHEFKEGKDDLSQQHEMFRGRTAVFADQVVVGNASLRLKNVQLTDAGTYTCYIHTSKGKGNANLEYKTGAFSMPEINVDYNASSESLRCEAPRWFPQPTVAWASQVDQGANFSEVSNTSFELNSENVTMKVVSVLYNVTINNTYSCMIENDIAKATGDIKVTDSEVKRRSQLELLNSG

[6] = biological target: T2, Recombinant human B7-H4 protein (R&D …); assay: ELISA, coated recombinant human B7-H4; remark: listed apart in the source
[7] = biological target: T2, Recombinant human B7-H4 protein (R&D …); assay: ELISA, coated human B7-H4, mean of two studies
[8] = biological target: T1, Human B7-H4 on the cell surface (MX-1, …); assay: flow cytometry, HEK-293 cells stably transfected with human B7-H4, mean of two experiments
[9] = biological target: T2, Recombinant human B7-H4 protein (R&D …); assay: ELISA, coated recombinant human B7-H4; remark: listed apart in the source
[10] = biological target: T5, Mouse B7-H4 protein (Creative Biomart; VTCN1-1519R) (mouse, UniProt Q7TSP5 25-257); assay: ELISA, coated mouse B7-H4, mean of two studies
T5 construct: Bought protein
T5 sequence (looked up): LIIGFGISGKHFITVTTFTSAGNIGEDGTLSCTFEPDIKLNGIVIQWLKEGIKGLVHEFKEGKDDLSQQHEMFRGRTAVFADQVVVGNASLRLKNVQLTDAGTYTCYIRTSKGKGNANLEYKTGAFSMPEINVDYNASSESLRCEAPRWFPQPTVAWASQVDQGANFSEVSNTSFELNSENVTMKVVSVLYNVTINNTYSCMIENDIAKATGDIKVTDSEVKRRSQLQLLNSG

B1: Palivizumab (antibody, V domains shown)
VH: QVTLRESGPALVKPTQTLTLTCTFSGFSLSTSGMSVGWIRQPPGKALEWLADIWWDDKKDYNPSLKSRLTISKDTSKNQVVLKVTNMDPADTATYYCARSMITNWYFDVWGAGTTVTVSS
VL: DIQMTQSPSTLSASVGDRVTITCKCQLSVGYMHWYQQKPGKAPKLLIYDTSKLASGVPSRFSGSGSGTEFTLTISSLQPDDFATYYCFQGSGYPFTFGGGTKLEIK
- EC50 [1]: > 100 nM
- EC50 [2]: > 200 nM
- EC50 [3]: > 100 nM
- EC50 [4]: > 100 nM
- EC50 [5]: > 100 nM
- EC50 [6]: > 100 nM
- EC50 [7]: > 100 nM
- EC50 [8]: > 100 nM
- EC50 [9]: > 100 nM
- EC50 [10]: > 100 nM
